Here are results for 7 molecules from article PMC6698644 (Nucleic Acids Research, 2019).

Data set [1] addresses T1, LeuO-His6 (wild type) (Escherichia coli K12, UniProt P10151 1-314).
T1 sequence: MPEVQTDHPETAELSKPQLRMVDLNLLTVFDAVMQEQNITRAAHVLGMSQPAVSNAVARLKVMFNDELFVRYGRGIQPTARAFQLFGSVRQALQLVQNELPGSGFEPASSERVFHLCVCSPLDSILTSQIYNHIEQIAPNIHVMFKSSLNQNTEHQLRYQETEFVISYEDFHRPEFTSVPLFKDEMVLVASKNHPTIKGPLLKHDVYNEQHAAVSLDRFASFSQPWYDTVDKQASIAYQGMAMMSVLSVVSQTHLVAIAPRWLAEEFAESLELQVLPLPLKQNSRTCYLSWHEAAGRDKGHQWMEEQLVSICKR
Kind of data set: SPR. A general note: SPR reads the build-up and loss of mass on a sensor chip optically.

Data set [2] has as its target T2, LeuO-S120D-His6 (Escherichia coli K12, UniProt P10151 1-314, S120D).
T2 sequence: T1 sequence with S120D
In words: SPR.

Another data set deals with T3, LeuO-DBD-His6 (Escherichia coli K12, UniProt P10151 1-101).
T3 sequence: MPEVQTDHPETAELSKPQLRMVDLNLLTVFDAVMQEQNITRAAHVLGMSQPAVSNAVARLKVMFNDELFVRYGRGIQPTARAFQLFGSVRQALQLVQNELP
In words: SPR.

Data set [3] concerns the target T2, LeuO-S120D-His6. Kind of data set: gel filtration.
Data set [4] concerns the target T1, LeuO-His6 (wild type). Kind of data set: gel filtration. (In general: Size exclusion chromatography separates by hydrodynamic size, large species first.)
The data set “crystal structure” deals with the molecule itself. In words: crystal structure.
The data set “SEC” concerns the molecule itself. In words: SEC.
For data set [5], the target named is T2, LeuO-S120D-His6. In words: SPR. This is another data set of the same source.
In data set [6] the target is T1, LeuO-His6 (wild type). Kind of data set: SPR. The source holds these as a separate data set.

Changes are numbered by the printed parent chain. In names and notes the source's numbering stands.

B1: SPR fragment C, scrambled (60 bp) (dsDNA)
DNA 1: GGGGGGTAAATTACATAATGCGATTAAAATTTATTTTCAAAAGTTTAATTTAACATTGAATTTATGGGGG
DNA 2: CCCCCATAAATTCAATGTTAAATTAAACTTTTGAAAATAAATTTTAATCGCATTATGTAATTTACCCCCC
On to B1, for which the binding result in the data set with LeuO-His6 (wild type) [1], in the data set with LeuO-S120D-His6 [2] and in the data set with LeuO-DBD-His6 was “no binding” each time.

B2: gel filtration fragment, cas LeuO site II (60 bp) (dsDNA)
DNA 1: TTTATATTCACAGTATGAATATTTTATGTAATAAAATTCATGGTAATTATTATAACTAAA
DNA 2: TTTAGTTATAATAATTACCATGAATTTTATTACATAAAATATTCATACTGTGAATATAAA
For the molecule B2, the binding result in the data set with LeuO-S120D-His6 [3] and with LeuO-His6 (wild type) [4] was “binds” in each case.

B3: LeuO-S120D effector-binding domain, C-terminally histidine-tagged (LeuO-S120D-EBD_(His6)) (domain or fragment, Escherichia coli)
chain: SSERVFHLCVCDPLDSILTSQIYNHIEQIAPNIHVMFKSSLNQNTEHQLRYQETEFVISYEDFHRPEFTSVPLFKDEMVLVASKNHPTIKGPLLKHDVYNEQHAAVSLDRFASFSQPWYDTVDKQASIAYQGMAMMSVLSVVSQTHLVAIAPRWLAEEFAESLELQVLPLPLKQNSRTCYLSWHEAAGRDKGHQWMEEQLVSICKR
B3: the binding result in the data set “crystal structure” is recorded as “binds”.

B4: LeuO, C-terminally histidine-tagged (LeuO_(His6)) (natural protein, Escherichia coli, UniProt P10151 1-314, looked up)
chain: T1 sequence
For the molecule B4, the “stoichiometry N” value in the data set “SEC” was determined as 4.

B5: LeuO-S120D, C-terminally histidine-tagged (LeuO-S120D_(His6)) (natural protein, Escherichia coli, UniProt P10151 1-314, looked up)
chain: T1 sequence with S120D
Regarding B5, the “stoichiometry N” value in “SEC” was 4.

B6: SPR fragment B, cas core-site (25 bp) (dsDNA)
DNA 1: GGGGGTTTATATTCACAGTATGAATATTTTGGGGG
DNA 2: CCCCCAAAATATTCATACTGTGAATATAAACCCCC
B6: the Kd in the data set with LeuO-S120D-His6 [5] stood at 600 pM; in the data set with LeuO-His6 (wild type) [6], 900 pM.

B7: SPR fragment A, cas LeuO site II (60 bp) (dsDNA)
DNA 1: GGGGGTTTATATTCACAGTATGAATATTTTATGTAATAAAATTCATGGTAATTATTATAACTAAAGGGGG
DNA 2: CCCCCTTTAGTTATAATAATTACCATGAATTTTATTACATAAAATATTCATACTGTGAATATAAACCCCC
Take B7: the Kd was 200 pM with LeuO-S120D-His6 [5] and 700 pM with LeuO-His6 (wild type) [6].

By stoichiometry N is commonly meant the number of molecules, sites or subunits per partner or assembly. What is called Kd is the free concentration of one partner at which half of the binding sites on the other are occupied at equilibrium, for simple one-to-one binding. A high value points to a looser complex.
